Results reported in patent US20250108110A1, “COMBINATION THERAPY FOR USE IN TREATMENT OF NON-SMALL CELL LUNG CANCER” (Alethia Biotherapeutics Inc., priority 2022, published 2025).

Experiments:
[1] = Pharmacokinetics of AB-16B5 in treated subjects; type: in vivo, human; conditions: preliminary pharmacokinetics data (not shown), 12 mg/kg once weekly
Source text: Yet another secondary objective of this study is to determine the pharmacokinetics of AB-16B5 in this subject population.

[2] = system: advanced non-small cell lung cancer; conditions: second-line chemotherapy; cited from earlier work

Compound | accumulation of the antibody in the treated subjects over time [1] | efficacy of 50 mg/m^2 once every two weeks versus 75 mg/m^2 once every three weeks [2]
AB-16B5: humanized IgG2 monoclonal antibody targeting sCLU for the inhibition of cancer-associated EMT; light chain SEQ ID NO:14, heavy chain SEQ ID NO:15 | accumulation | –
CC(=O)O[C@@]12CO[C@@H]1C[C@H](O)[C@@]1(C)C(=O)[C@H](O)C3=C(C)[C@@H](OC(=O)[C@H](O)[C@@H](NC(=O)OC(C)(C)C)c4ccccc4)C[C@@](O)([C@@H](OC(=O)c4ccccc4)[C@H]21)C3(C)C [docetaxel] | – | as effective as
